Substitutions are numbered along the chain they refer to.

In experiment [1] the target is T1, recombinant canine OX40L ECD-TNCc-HIS protein (canine).
T1 construct: also called Trimeric OX40L probe (HIS tag); trimeric canine OX40L
T1 chain: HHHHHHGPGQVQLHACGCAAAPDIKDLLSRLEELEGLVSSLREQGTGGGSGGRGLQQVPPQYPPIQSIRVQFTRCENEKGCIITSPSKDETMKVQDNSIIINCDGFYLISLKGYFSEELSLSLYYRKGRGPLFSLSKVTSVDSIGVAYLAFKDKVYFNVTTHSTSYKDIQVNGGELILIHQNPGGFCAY
The experiment can be described thus: SPR Koff (kd2). In a few lines:
(§1)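 Purified antigen amine-coupled at low density to a CM5 chip; candidate antibodies injected as analyte over a concentration range. Kinetic curves fitted with a bivalent analyte model to give functional affinity and dissociation rates.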

Experiment [2] addresses T1, recombinant canine OX40L ECD-TNCc-HIS …. The experiment can be described thus: SPR KD1, bivalent analyte model. Put shortly: as §1
Experiment [3] deals with T2, canine OX40L, full length membrane form, expressed on HEK293 cells (canine).
T2 construct: also called OX40L expressing HEK; HEK OX40L cells
T2 chain: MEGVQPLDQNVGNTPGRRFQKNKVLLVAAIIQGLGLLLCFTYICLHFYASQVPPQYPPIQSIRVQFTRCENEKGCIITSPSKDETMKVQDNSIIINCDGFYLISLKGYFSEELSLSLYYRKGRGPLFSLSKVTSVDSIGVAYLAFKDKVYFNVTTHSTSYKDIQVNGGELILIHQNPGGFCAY
Briefly: flow cytometry, OX40L HEK minus WT HEK. In a few lines: (§2)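 CHO supernatants at 1, 5 or 10 μg/ml in PBS/3% FBS incubated 30′ on ice with cells surface-expressing canine OX40L. Bound antibody detected with fluorescent anti-canine Fc secondary (1:1000, 30 min, dark) and measured by flow cytometry, with parental WT HEK signal subtracted where stated.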
A general note: In flow cytometry, cells or beads pass a laser one at a time.

Experiment [4] deals with T2, canine OX40L, full length membrane …. The experiment can be described thus: cell-based or functional assay.
Experiment [5] shares this target. Briefly: flow cytometry. Put shortly:
as §2

In experiment [6] the target is T1, recombinant canine OX40L ECD-TNCc-HIS …. Briefly: SPR Koff (kd1). In a few lines: as §1

B1: PMX155 (antibody, V domains shown)
VH: ELHLVESGGDLVKPAGSLRLSCVASGFTFSSFRMSWVRQSPGKGLQFVAGINSDGYNTQYRDDVKGRFTISRDNTEKTLYLQMNNLRVEDTAMYYCVKDQGSWGGNFDFWGQGTLVTVSS
VL: SYGLTQPPSVNVTLRETAHITCGGDSIGSKYVQWIQQIPGQAPVVIIYKDRNRPTGIPERFSGANSGNTATLTISGALAEDEADYYCQVGDSGTSVFGGGTHLTVL
The term koff denotes the first-order rate constant of dissociation. B1: the off-rate (koff) in experiment [1] stood at 0.000294 s⁻¹. For the same molecule, in experiment [2], the Kd was determined as 90.6 nM. This molecule returned a GEO mean difference in experiment [3] of 730000. In addition, in experiment [4], the “% Signal Inhibition Average” value worked out at 32.7%, the “% Signal Inhibition Rep1” value was 19.9%, the “% Signal Inhibition Rep2” value is 37.4% and the “% Signal Inhibition Rep3” value came to 40.9%. Also, the “GEO mean OX40L expressing HEK” value in experiment [5] is 738000. In addition, the koff in experiment [6] turned out to be 0.032 s⁻¹.

B2: PMX156 (antibody, V domains shown)
VH: B1 VH with H3Q, S31N, S40A, N57S, F109Y
VL: B1 VL
On to B2, for which, in experiment [1], the koff was found to be 0.000238 s⁻¹. Also, the Kd in experiment [2] turned out to be 1980 nM. In addition, the GEO mean difference in experiment [3] came out at 672000. Also, in experiment [4], the “% Signal Inhibition Average” value worked out at 35.1%, the “% Signal Inhibition Rep1” value came out at 21.6%, the “% Signal Inhibition Rep2” value came out at 34.5% and the “% Signal Inhibition Rep3” value came to 49.1%. Further, the “GEO mean OX40L expressing HEK” value in experiment [5] stood at 680000. In experiment [6], the koff came to 0.102 s⁻¹.

B3: PMX029 (antibody, V domains shown)
VH: EVQLVESGGDLVKPGGSLRLSCVASGFTFSSYHMNWVRQAPGKGLQWVAYINTGGSRTSYADAVKGRFTISRDNAKNTLYLQMNSLRAEDTAVYYCANNYWDNFDSWGQGTLVTVSS
VL: SYELTQPPSVNVTLRETAHITCGGDSIGSKYVQWIQQNPGQAPVVIIYKDTNRPTGIPERFSGANSGNTATLTISGALAEDEADYYCQVGDSGTKASVFGGGTHLTVL
notes: also called PMX29
As for B3, in experiment [1], the koff worked out at 0.000779 s⁻¹. Besides, in experiment [2], the Kd was 51.6 nM. The molecule also gave a GEO mean difference in experiment [3] of 1.06e+06. For the same molecule, in experiment [4], the “% Signal Inhibition Average” value came out at 69.4%, the “% Signal Inhibition Rep1” value is 75.8%, the “% Signal Inhibition Rep2” value is 76.2% and the “% Signal Inhibition Rep3” value stood at 56%. Besides, in experiment [5], the “GEO mean OX40L expressing HEK” value is 1.09e+06. In experiment [6], the dissociation rate constant (koff) worked out at 0.0294 s⁻¹.

B4: PMX065 (antibody, V domains shown)
VH: EVQLVESGGDLVKPGGSLRLSCVASGFTFNNYEMYWVRQAPGKGLEWVARIYESGSTTFSAEAVTGRFTISRDNAKNMVYLQMNSLRAEDTAVYYCASASSSSWRFDYWGQGTLVTVSS
VL: SYVLTQLPSVSVTLGQTARITCGGDSIGRKNVCWFQQRLGQAPELIIYDDRSRPSGIPERFSGANSGNTATLTISGALAEDEADYYCQVWDSSTGVFGGGTHLTVL
notes: also called PMX65
Turning to B4, in experiment [1], the off-rate constant (koff) was 0.412 s⁻¹. Besides, the Kd in experiment [2] was found to be 107 nM. In experiment [3], the GEO mean difference is 3.52e+06. In addition, in experiment [4], the “% Signal Inhibition Average” value amounted to 72.6%, the “% Signal Inhibition Rep1” value was found to be 62.7%, the “% Signal Inhibition Rep2” value stood at 85.3% and the “% Signal Inhibition Rep3” value was 69.9%. The “GEO mean OX40L expressing HEK” value in experiment [5] was 3.55e+06. In addition, the koff in experiment [6] amounted to 0.0125 s⁻¹.

B5: PMX294 (antibody, V domains shown)
VH: EVQLVESGGDLVKPEGSLRLSCAVSGFTFSSNDMSWVRQAPGKGLQWVAYITYDGRSTSYTDIVKGRFTVSRDNAKNTLYLQMNSLRSEDAAVYYCAKAQRGWFFDYWGQGTLVTVSS
VL: B4 VL with G15R, R29S, C33Y, F35Y, R38K, E44V, R51D, F61I
With B5, the off-rate constant (koff) in experiment [1] was 2.69 s⁻¹. In experiment [2], the Kd came out at 14.4 nM. The same molecule returned a GEO mean difference in experiment [3] of 591000. Besides, in experiment [4], the “% Signal Inhibition Average” value stood at 78.6%, the “% Signal Inhibition Rep1” value is 94%, the “% Signal Inhibition Rep2” value turned out to be 88.7% and the “% Signal Inhibition Rep3” value came to 53%. Also, the “GEO mean OX40L expressing HEK” value in experiment [5] came to 595000. In addition, the koff in experiment [6] stood at 0.00155 s⁻¹.

B6: PMX030 (antibody)
heavy: EVQLVESGGDLVKPGGSLRLSCVASGFTFSNYHMNWVRQAPGKGLQWVAYVVSGGSTTSYADAVKGRFTISRDNAKNTLYLQMNSLRAEDTAVYYCAKGTSSWGVPMDYWGHGTSLFVSSASTTAPSVFPLAPSCGSTSGSTVALACLVSGYFPEPVTVSWNSGSLTSGVHTFPSVLQSSGLYSLSSMVTVPSSRWPSETFTCNVAHPASKTKVDKPVPKRENGRVPRPPDCPKCPAPESLGGPSVFIFPPKPKDTLLIARTPEVTCVVVDLGREDPEVQISWFVDGKQMQTAKTQPREEQFNGTYRVVSVLPIGHQDWLKGKQFTCKVNHIGLPSPIERTISKARGQAHQPSVYVLPPSREELSKNTVSLTCLIKDFFPPDIDVEWQSNGQQEPESKYRTTPPQLDEDGSYFLYSKLSVDKSRWQRGDTFICAVMHEALHNHYTQKSLSHSPGK
VL: B4 VL with G15R, G28R, R29S, C33Y, F35Y, R38K, E44V, R51S, G95S
notes: also called PMX30
Consider B6, for which, in experiment [1], the koff was determined as 0.000924 s⁻¹. Also, in experiment [2], the Kd came to 114 nM. Moreover, in experiment [3], the GEO mean difference stood at 1.39e+06. Further, in experiment [4], the “% Signal Inhibition Average” value amounted to 65.6%, the “% Signal Inhibition Rep1” value worked out at 70.6%, the “% Signal Inhibition Rep2” value amounted to 83.9% and the “% Signal Inhibition Rep3” value turned out to be 42.3%. Besides, the “GEO mean OX40L expressing HEK” value in experiment [5] was 1.42e+06. Further, the koff in experiment [6] came out at 0.0283 s⁻¹.

B7: PMX035 (antibody, V domains shown)
VH: EVQLVESGGDLVKPGGSLRLSCVASGFTFSNFEMYWVRQAPGKGLEWVARIYKSGSTTYHSERVKGRFTISKDSATNMAFLQMNSLRAEDTAVYYCTSASSTGWRFDYWGQGTLVTVSS
VL: B4 VL with G15R, R38K, E44V, R51N, V96I
notes: also called PMX35
With B7, in experiment [1], the off-rate (koff) was determined as 0.000498 s⁻¹. The Kd in experiment [2] amounted to 269 nM. The molecule also gave a GEO mean difference in experiment [3] of 1.38e+06. Also, in experiment [4], the “% Signal Inhibition Average” value stood at 73.5%, the “% Signal Inhibition Rep1” value came out at 85.3%, the “% Signal Inhibition Rep2” value amounted to 67.4% and the “% Signal Inhibition Rep3” value was 67.8%. In addition, the “GEO mean OX40L expressing HEK” value in experiment [5] was determined as 1.41e+06. Further, the off-rate constant (koff) in experiment [6] came to 0.0311 s⁻¹.

B8: PMX293 (antibody, V domains shown)
VH: EVRLLESGGDLVKPAGSLRLSCAVSGFTFSTYDMSWVRQAPGKGLQWVAYITYDGRTTSYTDTVKGRFTVSRDNAKNMLYLKMNSLRSEDAAVYYCAKAHRGWFFDHWGQGTLVTVSS
VL: B4 VL with G15R, R29S, C33Y, F35Y, R38K, E44V, R51T, N68T
As to B8, in experiment [1], the koff was found to be 145 s⁻¹. For the same molecule, the Kd in experiment [2] turned out to be 1 nM. Moreover, the GEO mean difference in experiment [3] is 598000. Moreover, in experiment [4], the “% Signal Inhibition Average” value worked out at 73.7%, the “% Signal Inhibition Rep1” value is 81.6%, the “% Signal Inhibition Rep2” value was determined as 77.5% and the “% Signal Inhibition Rep3” value amounted to 62.1%. In experiment [5], the “GEO mean OX40L expressing HEK” value turned out to be 602000. Also, the koff in experiment [6] is 0.000387 s⁻¹.

B9: PMX031 (antibody)
heavy: B6 heavy with S56T, S59T, S102T
VL: B4 VL with G15R, G28R, R29S, C33Y, F35Y, Q37K, R38K, E44V, R51S, G95S
notes: also called PMX31
Regarding B9, the off-rate constant (koff) in experiment [1] turned out to be 0.000606 s⁻¹. Further, the Kd in experiment [2] was 154 nM. In addition, in experiment [3], the GEO mean difference amounted to 1.51e+06. Also, in experiment [4], the “% Signal Inhibition Average” value came out at 78.4%, the “% Signal Inhibition Rep1” value came out at 83.5%, the “% Signal Inhibition Rep2” value was found to be 89.1% and the “% Signal Inhibition Rep3” value is 62.7%. In experiment [5], the “GEO mean OX40L expressing HEK” value was 1.55e+06. The off-rate (koff) in experiment [6] is 0.0124 s⁻¹.

B10: PMX040 (antibody, V domains shown)
VH: B7 VH with K53E, S56T, S61A, R63G, S74N, A75V, T76K, F80Y, T102S, G103S
VL: B4 VL with G15R, R38K, E44I, R51S, V96I
notes: also called PMX40
Consider B10, for which, in experiment [1], the koff stood at 0.436 s⁻¹. Also, the Kd in experiment [2] was 1.26 nM. In experiment [3], this molecule gave a GEO mean difference of 1.15e+06. In experiment [4], the “% Signal Inhibition Average” value was determined as 77.1%, the “% Signal Inhibition Rep1” value was 75.4%, the “% Signal Inhibition Rep2” value turned out to be 84.2% and the “% Signal Inhibition Rep3” value stood at 71.8%. Moreover, the “GEO mean OX40L expressing HEK” value in experiment [5] is 1.18e+06. In addition, the dissociation rate constant (koff) in experiment [6] is 0.000748 s⁻¹.

B11: PMX154 (antibody, V domains shown)
VH: EVQLVESGGDLVKPEGSLRLSCVVSGFTFSGFDMSWVRQAPGKGLQWVAYISTDGRSTGYTDAVKGRFTISRDNVKNTLYLQMNSLRTEDTAVYYCAKETRHWGFDYWGQGTLVIVSS
VL: SYVLTQLSSVSVSLRQTAHITCGGDSIGRKNVYWHQQKLGRAPILIIYDDSSRPSGIPERFSGANSGNTATLTISGALAEDEAAYYCQVWDSSTSVFGGGTHLTVL
In the case of B11, the off-rate (koff) in experiment [1] was found to be 6.94 s⁻¹. For the same molecule, the Kd in experiment [2] was 15.6 nM. The same molecule came in with a GEO mean difference in experiment [3] of 781000. In experiment [4], the “% Signal Inhibition Average” value came to 63.7%, the “% Signal Inhibition Rep1” value stood at 62.6%, the “% Signal Inhibition Rep2” value came to 77.2% and the “% Signal Inhibition Rep3” value amounted to 51.5%. Also, the “GEO mean OX40L expressing HEK” value in experiment [5] came to 789000. Further, in experiment [6], the koff worked out at 0.00384 s⁻¹.

For the origin of these results see US20250340659A1 (PETMEDIX, published 2025).
